The values below come from patent US20190369104A1, “P27 TYROSINE PHOSPHORYLATION AS A MARKER OF CDK4 ACTIVITY AND METHODS OF USE THEREOF” (THE RESEARCH FOUNDATION FOR THE STATE UNIVERSITY OF NEW YORK, priority 2016, published 2019).

The IC50 is the concentration at which inhibition is half-maximal. What is called Kd is the concentration at which binding is half-saturated.

B1: Brk SH3 domain (displayed on phage) (other)
chain: KYVGLWDFKSRTDEELSFRAGDVFHVARKEEQWWWATLLDEAGGAVAQGYVPHNYLAER
notes: also called SH3 domain of Brk

One experiment relates to HCC1954 cells. Kind of experiment: Palbociclib inhibitor treatment, viable cell count IC50. In kind it is cell-based. To be noted: Homo sapiens; HCC1954 cells (Rb+). On the procedure:
(§1) Cells were seeded on six well plates in duplicate, 5.0×10^4 per well. 24 hours post seeding, one well for each plate was treated with trypsin and counted using the Biorad Automated cell counter. 48 hours post seeding, another well was treated with trypsin and counted and the rest of the wells were treated with Palbociclib (SelleckChem) at 50 nM, 100 nM, 200 nM and 400 nM. DMSO was used as a negative control. Cells were counted again 24 and 48 h post treatment. The IC50 values were determined by normalizing the number of viable cells treated with different concentrations of Palbociclib to the number of viable cells treated with DMSO for each cell line 48 hours post treatment. The number of viable cells treated with DMSO was considered 100%. The log of the viability values was obtained and the data was fitted to a nonlinear regression curve, which was used to generate the IC50 values using Graphpad Prism software.

A further experiment has as its system MCF7 cells. The experiment is described as above. The following applies: Homo sapiens. Format: cell-based. The procedure: as §1
The next experiment deals with MDA MB231 cells. Described as above. Format: cell-based. The following applies: Homo sapiens, MDA-MB-231. The procedure:
as §1

The test system of another experiment is p27 pY88 in MCF7 cells. Kind of experiment: Dual pY/p27 IHC assay on cell blocks. Also on record: key to pY staining intensity: 0: no pY staining; 1: weak pY staining; 2: moderate pY staining; 3: strong pY staining. To be noted: MCF7 cells treated with 400 nM Palbociclib, 48 h. Format: cell-based.
For experiment [1], the system named is MCF7-Wt Brk expressing cells. Kind of experiment: Palbociclib (PD) resistance of Brk-overexpressing cells, IC50. In kind it is cell-based. The following applies: Homo sapiens. The procedure: as §1
Generation of the WT-Brk, KM-Brk, and YF-Brk has been described (Palka-Hamblin H. L. et al., […] J. Cell Sc. 123: 236-45). Amphotropic retroviruses were generated by transfection using Lipofectamine 2000 (Life Technologies 11668-019) of HEK 293 cells with pAmpho envelope and pBabe or pTRE3G tetracycline inducible constructs. Following viral infection of MCF7 cells, stable integrants were isolated by puromycin selection. […]

The target in experiment [2] is T1, recombinantly produced His-tagged p27 (full-length p27) (human, UniProt P46527 1-198).
T1 construct: also called p27Kip1; His-p27; not shown: C-terminal histidine tag
T1 sequence (P46527 whole entry): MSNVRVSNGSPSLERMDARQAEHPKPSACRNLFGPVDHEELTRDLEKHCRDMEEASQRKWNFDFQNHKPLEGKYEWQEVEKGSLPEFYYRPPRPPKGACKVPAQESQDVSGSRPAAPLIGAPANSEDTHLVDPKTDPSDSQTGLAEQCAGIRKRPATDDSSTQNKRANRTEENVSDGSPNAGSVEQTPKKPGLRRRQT
The experiment can be described thus: phage-ELISA, SH3 phage on immobilised His-p27 (multivalent phage). On the procedure:
(§2) Phage supernatants were generated and binding of SH3-phages to recombinantly produced His-tagged-p27 or GST-PxxP-peptides were analyzed as described (Asbach B. et al., (2012) PLoS One 6: e38540).
Background: In an ELISA, binding on a coated surface is turned into a signal by an enzyme label.

For experiment [3], the system named is ER/PR+, Her2− breast cancer cell lines. The experiment can be described thus: ALT (alone or with Palbociclib) in breast cancer cell lines. In kind it is cell-based. From the text:
To block pY in breast cancer cell lines, we used a small peptide ALT, which contains a portion of Brk's SH3 domain. ALT binds to p27, blocks Brk's association and ability to phosphorylate p27, inhibiting cdk4 and increasing p27's ability to inhibit cdk2. We generated Tetracycline inducible cell lines that expressed ALT and/or engineered a lipid-based nanoparticle delivery vehicle (NP-ALT), permitting us to test ALT as a first generation therapeutic. ALT was also used with Palbociclib to determine if combination therapy reduced drug resistance. pY inhibition comes with a built in biomarker for efficacy and the identification of responsive cell lines and/or future patients. We developed a dual IHC assay for p27 and pY, which we used to analyze both a breast cancer cell line panel previously stratified for Palbociclib sensitivity as well as paraffin-embedded, archival human tumor samples.

In experiment [4] the target is B1. Kind of experiment: phage-ELISA on immobilised GST-K2.
Excerpt: (§3) (FIG. 1A) p27 sequence highlighting the proline tracts of the three putative SH3 domain recruitment sites (PxxP): K1 (90-96), K2 (114-117) and K3 (188-195) (SEQ ID NO: 1). Phage-ELISA-analysis of SFK SH3 interactions with p27 (FIG. 1B) or p27's PxxP motifs (FIG. 1C). Data shown is the mean of three independent experiments±standard deviation after normalization and subtraction of the background binding to GST.
as §2

The target of experiment [5] is T2, Abl SH3 domain (displayed on phage) (UniProt P00519 61-121, limits assumed).
T2 construct: domain: SH3
T2 sequence (P00519 61-121 limits assumed): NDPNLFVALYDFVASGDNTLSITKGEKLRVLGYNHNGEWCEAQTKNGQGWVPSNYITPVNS
Kind of experiment: phage-ELISA on immobilised GST-K2.
Excerpt: as §3, §2

The target of experiment [6] is T3, Yes SH3 domain (displayed on phage) (UniProt P07947 91-152, limits assumed).
T3 construct: domain: SH3
T3 sequence (P07947 91-152 limits assumed): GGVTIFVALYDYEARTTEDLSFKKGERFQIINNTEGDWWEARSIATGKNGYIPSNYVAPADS
The experiment can be described thus: phage-ELISA on immobilised GST-K2.
Excerpt: as §3, §2

[7] abbreviates: ER/PR+, Her2− breast cancer cell lines.

Procedure for p27 pY88 in MCF7 cells: 1×10^12 cells were grown in tissue culture, spun down and fixed in 10% formalin, embedded in paraffin, and then analyzed in the dual pY/p27 IHC assay as described. MCF7 cells were treated with 400 nM Palbociclib for 48 h. before cell block preparation. […] On day 1, slides are labeled with a pencil and baked in an oven at 65° C. for 30 minutes and immediately transferred from the oven to a coplin jar containing Xylene. Slides are rinsed in Xylene 4× for 3 minutes each at room temperature followed by a graded alcohol wash at 100%-95%-75% ethanol 3 times, 3 min each at R.T. Slides were then hydrated by incubation in H2O once for 3 min. After drying, a hydrophobic barrier was created around the tissue using a PAP pen. Endogenous peroxide was blocked by incubating the slides with Peroxide block for 30 min at room temp. The slides were washed with TBS-0.1% Tween 20 3 times for 3 minutes each followed by incubation in 1×PBS for 3 min. After an incubation with a with protein block for 1 h at R.T, P27 [MUT] antibody diluted 1:200 in the DAKO antibody diluent was added to the slides for an overnight incubation at 4° C. On day 2, a 1× solution of antigen retrieval was prepared from 10× stock and it was equilibrated at 100° C. in the water bath. […]

Turning to `CC(=O)c1c(C)c2cnc(Nc3ccc(N4CCNCC4)cn3)nc2n(C2CCCC2)c1=O` [Palbociclib], the IC50 in the experiment with HCC1954 cells was 1 µM; in the experiment on MCF7 cells it was 0.2 µM; in the experiment on MDA MB231 cells, 0.4 µM; in experiment [1], approximately 0.6 µM. Also, the “pY staining, % of cells stained” value in the experiment on p27 pY88 in MCF7 cells was 0%. This molecule showed a pY staining intensity in the experiment with p27 pY88 in MCF7 cells (scale 0-3) of 0.
As for B1, in experiment [2], the Kd was determined as 0.25 µM.

B2: ALT: small peptide ALT, which contains a portion of Brk's SH3 domain; alternatively-spliced form of Brk (SEQ ID NO: 12) (protein)
chain: MVSRDQAHLGPKYVGLWDFKSRTDEELSFRAGDVFHVARKEEQWWWATLLDEAGGAVAQGYVPHNYLAERETVESEPAGHAGCAALQDLAACRGPAAPERGGVLPQPARACELPQGPEPVPRPAAGRALPEARA
modifications: Alt-Brk
Turning to B2, in experiment [3] (setting [7]), the cdk2 activity entry is given as “blocked”, the cdk4 activity entry is listed as “blocked”, the pY entry is given as “blocked” and the proliferation entry is listed as “blocked”. Besides, the duration of arrest in experiment [3] (breast cancer cell lines) is more than 10 days.

B3: GST-K2 (GST-tagged p27 PxxP peptide K2) (peptide)
chain: DVSGSRPAAPLIGAPA
notes: also called K2 site; not shown: N-terminal GST tag from the pGEX-KG expression vector
Consider B3, for which the binding result in experiment [4], in [5] and in [6] was “no binding” throughout.
